The text below walks through data of the supplement of paper PMC10567573.

To fix the notation:
B1: PLK2 (parent)
chain: MELLRTITYQPAASTKMCEQALGK
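Note: lentivirally expressed fusions sorted by FACS into six bins by GFP to DsRed ratio, PSI derived from sequencing read proportions per bin multiplied by bin number.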

In this data set the parent is B1. The experiment in a line: protein stability index of a GFP-peptide fusion (GPS, HEK-293T) (PSI 1-6); higher = more stable. Particulars: c terminus: a fixed tail appended.
Regarding MELLKTITYQPAASTKMCEQALGK, the protein stability index was 3.52.

Take MELLNTITYQPAASTKMCEQALGK: the protein stability index was 3.79.

Consider MELLTTITYQPAASTKMCEQALGK, for which the protein stability index amounted to 2.47.

As for MELLETITYQPAASTKMCEQALGK, the protein stability index is 3.55.

Consider MELLITITYQPAASTKMCEQALGK, for which the protein stability index was 3.09.

On to MELLHTITYQPAASTKMCEQALGK, for which the protein stability index came to 3.02.

Regarding MELLDTITYQPAASTKMCEQALGK, the protein stability index is 3.95.

For MELLYTITYQPAASTKMCEQALGK, the protein stability index is 1.4.

Take MELLFTITYQPAASTKMCEQALGK: the protein stability index was determined as 2.18.

For the variant MELLPTITYQPAASTKMCEQALGK, the protein stability index was 3.83.

With MELLCTITYQPAASTKMCEQALGK, the protein stability index was found to be 1.47.

With MELLQTITYQPAASTKMCEQALGK, the protein stability index is 3.26.

For MELLMTITYQPAASTKMCEQALGK, the protein stability index is 2.36.

As for MELLSTITYQPAASTKMCEQALGK, the protein stability index worked out at 2.71.

As for MELLATITYQPAASTKMCEQALGK, the protein stability index stood at 1.92.

Turning to MELLLTITYQPAASTKMCEQALGK, the protein stability index worked out at 3.55.

MELLWTITYQPAASTKMCEQALGK: the protein stability index turned out to be 2.88.

MELLVTITYQPAASTKMCEQALGK: the protein stability index amounted to 4.09.

Consider MELLGTITYQPAASTKMCEQALGK, for which the protein stability index amounted to 3.02.

For MELLRTWTYQPAASTKMCEQALGK, the protein stability index is 2.27.

On to MELLRTYTYQPAASTKMCEQALGK, for which the protein stability index was 2.6.

In the case of MELLRTDTYQPAASTKMCEQALGK, the protein stability index was 4.13.

As for MELLRTVTYQPAASTKMCEQALGK, the protein stability index was 1.97.

With MELLRTRTYQPAASTKMCEQALGK, the protein stability index turned out to be 3.09.

For MELLRTATYQPAASTKMCEQALGK, the protein stability index is 2.34.

With MELLRTMTYQPAASTKMCEQALGK, the protein stability index came to 2.85.

Consider MELLRTETYQPAASTKMCEQALGK, for which the protein stability index stood at 2.89.

Regarding MELLRTCTYQPAASTKMCEQALGK, the protein stability index amounted to 2.1.

For MELLRTKTYQPAASTKMCEQALGK, the protein stability index came to 3.24.

Turning to MELLRTSTYQPAASTKMCEQALGK, the protein stability index was determined as 2.54.

For MELLRTFTYQPAASTKMCEQALGK, the protein stability index was 1.94.

For the variant MELLRTLTYQPAASTKMCEQALGK, the protein stability index is 2.03.

Consider MELLRTTTYQPAASTKMCEQALGK, for which the protein stability index amounted to 1.97.

For MELLRTHTYQPAASTKMCEQALGK, the protein stability index was 2.8.

For the variant MELLRTPTYQPAASTKMCEQALGK, the protein stability index worked out at 2.12.

On to MELLRTNTYQPAASTKMCEQALGK, for which the protein stability index came to 3.19.

MELLRTGTYQPAASTKMCEQALGK: the protein stability index worked out at 3.72.

For the variant MELLRTQTYQPAASTKMCEQALGK, the protein stability index stood at 2.79.

As to MELFRTITYQPAASTKMCEQALGK, the protein stability index is 2.05.

With MELKRTITYQPAASTKMCEQALGK, the protein stability index came to 4.05.

As for MELGRTITYQPAASTKMCEQALGK, the protein stability index amounted to 3.76.

As for MELARTITYQPAASTKMCEQALGK, the protein stability index amounted to 2.55.

In the case of MELQRTITYQPAASTKMCEQALGK, the protein stability index was found to be 2.58.

As to MELYRTITYQPAASTKMCEQALGK, the protein stability index was 1.98.

Consider MELPRTITYQPAASTKMCEQALGK, for which the protein stability index was determined as 4.25.

Turning to MELNRTITYQPAASTKMCEQALGK, the protein stability index was determined as 4.01.

Consider MELERTITYQPAASTKMCEQALGK, for which the protein stability index is 3.69.

On to MELWRTITYQPAASTKMCEQALGK, for which the protein stability index stood at 1.7.

MELHRTITYQPAASTKMCEQALGK: the protein stability index worked out at 2.6.

For MELSRTITYQPAASTKMCEQALGK, the protein stability index is 3.91.

For the variant MELTRTITYQPAASTKMCEQALGK, the protein stability index stood at 3.67.

For the variant MELDRTITYQPAASTKMCEQALGK, the protein stability index amounted to 4.39.

With MELIRTITYQPAASTKMCEQALGK, the protein stability index was found to be 2.92.

As to MELRRTITYQPAASTKMCEQALGK, the protein stability index came out at 3.26.

As for MELCRTITYQPAASTKMCEQALGK, the protein stability index came out at 2.02.

MELMRTITYQPAASTKMCEQALGK: the protein stability index turned out to be 1.61.

Turning to MELVRTITYQPAASTKMCEQALGK, the protein stability index came to 2.77.

For MELLRTITYQPACSTKMCEQALGK, the protein stability index was determined as 3.34.

MELLRTITYQPAFSTKMCEQALGK: the protein stability index is 2.33.

With MELLRTITYQPAHSTKMCEQALGK, the protein stability index was 2.36.

Take MELLRTITYQPAESTKMCEQALGK: the protein stability index was 2.09.

Turning to MELLRTITYQPAGSTKMCEQALGK, the protein stability index is 2.97.

As for MELLRTITYQPADSTKMCEQALGK, the protein stability index is 2.51.

In the case of METLRTITYQPAASTKMCEQALGK, the protein stability index came to 1.94.

On to MEGLRTITYQPAASTKMCEQALGK, for which the protein stability index was determined as 1.89.

As for MESLRTITYQPAASTKMCEQALGK, the protein stability index is 2.21.

Take MEVLRTITYQPAASTKMCEQALGK: the protein stability index is 2.49.

MEYLRTITYQPAASTKMCEQALGK: the protein stability index turned out to be 2.07.

For MEILRTITYQPAASTKMCEQALGK, the protein stability index came out at 2.63.

With MEHLRTITYQPAASTKMCEQALGK, the protein stability index was 1.62.

As for MEPLRTITYQPAASTKMCEQALGK, the protein stability index amounted to 3.11.

As to MENLRTITYQPAASTKMCEQALGK, the protein stability index was 1.88.

Turning to MEWLRTITYQPAASTKMCEQALGK, the protein stability index was found to be 2.48.

Take MERLRTITYQPAASTKMCEQALGK: the protein stability index stood at 2.24.

With MEQLRTITYQPAASTKMCEQALGK, the protein stability index was found to be 2.08.

On to MEMLRTITYQPAASTKMCEQALGK, for which the protein stability index came out at 3.04.

Consider MEKLRTITYQPAASTKMCEQALGK, for which the protein stability index was determined as 1.37.

In the case of MELLRTITYQIAASTKMCEQALGK, the protein stability index came out at 2.82.

For MELLRTITYQNAASTKMCEQALGK, the protein stability index worked out at 1.82.

For MELLRTITYQVAASTKMCEQALGK, the protein stability index worked out at 3.59.

With MELLRTITYQAAASTKMCEQALGK, the protein stability index stood at 2.12.

On to MELLRTITYQDAASTKMCEQALGK, for which the protein stability index turned out to be 1.6.

Regarding MELLRTITYQTAASTKMCEQALGK, the protein stability index came out at 2.72.

Consider MELLRTITYQKAASTKMCEQALGK, for which the protein stability index is 1.93.

On to MELLRTITYQLAASTKMCEQALGK, for which the protein stability index turned out to be 4.39.

In the case of MELLRTITYQSAASTKMCEQALGK, the protein stability index stood at 3.09.

For MELLRTITYQHAASTKMCEQALGK, the protein stability index came out at 2.39.

For MELLRTITYQGAASTKMCEQALGK, the protein stability index is 2.1.

On to MELLRTITYQRAASTKMCEQALGK, for which the protein stability index was found to be 2.16.

As to MELLRTITYQFAASTKMCEQALGK, the protein stability index is 2.52.

With MELLRTITYQYAASTKMCEQALGK, the protein stability index is 2.69.

MELLRTITYQMAASTKMCEQALGK: the protein stability index came to 2.15.

Take MELLRTITYQEAASTKMCEQALGK: the protein stability index was determined as 1.91.

On to MELLRTITYQQAASTKMCEQALGK, for which the protein stability index worked out at 2.65.
